Data on two substances can be found in US20080138330.

In the series the target is RTEF-1 (TEAD4) (Homo sapiens) (UniProt Q15561). In words: cell_activity.

Where only a bound is given, the exact number is not on record here.

Chain of RTEF-1 (TEAD4) (Homo sapiens) (Q15561 other isoform, or with tags, fused parts or gaps): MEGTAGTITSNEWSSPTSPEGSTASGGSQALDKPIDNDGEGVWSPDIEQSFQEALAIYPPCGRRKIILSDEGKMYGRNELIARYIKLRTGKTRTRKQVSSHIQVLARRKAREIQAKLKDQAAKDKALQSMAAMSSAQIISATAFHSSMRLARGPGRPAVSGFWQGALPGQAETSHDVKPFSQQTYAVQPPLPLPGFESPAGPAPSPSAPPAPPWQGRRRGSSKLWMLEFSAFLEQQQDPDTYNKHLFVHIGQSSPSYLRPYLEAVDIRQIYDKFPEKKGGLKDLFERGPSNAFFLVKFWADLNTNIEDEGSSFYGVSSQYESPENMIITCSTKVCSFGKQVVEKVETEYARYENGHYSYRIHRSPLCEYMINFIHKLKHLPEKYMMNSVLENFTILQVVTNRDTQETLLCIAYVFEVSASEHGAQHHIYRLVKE

Turning to FGFR1 0.15 kb promoter (-48/+94), the activity (luciferase in BAEC) is > 3 fold.

For the substance VEGF 0.35 promoter (-194/+157), the activity (luciferase, +/-0.3, 2.7 +/-0.2 fold in hypoxia) was found to be 2.2 fold.
